According to publication doi:10.1101/2024.09.22.614354 (bioRxiv, 2024):
Residue numbers refer to the chain shown, from its start.

Tests used:
Assay in all cases: fluorescence polarisation
Rb^P S474R = molecular target: T1, Rb^P S474R (human, UniProt P06400 380-788, S474R)
T1 sequence: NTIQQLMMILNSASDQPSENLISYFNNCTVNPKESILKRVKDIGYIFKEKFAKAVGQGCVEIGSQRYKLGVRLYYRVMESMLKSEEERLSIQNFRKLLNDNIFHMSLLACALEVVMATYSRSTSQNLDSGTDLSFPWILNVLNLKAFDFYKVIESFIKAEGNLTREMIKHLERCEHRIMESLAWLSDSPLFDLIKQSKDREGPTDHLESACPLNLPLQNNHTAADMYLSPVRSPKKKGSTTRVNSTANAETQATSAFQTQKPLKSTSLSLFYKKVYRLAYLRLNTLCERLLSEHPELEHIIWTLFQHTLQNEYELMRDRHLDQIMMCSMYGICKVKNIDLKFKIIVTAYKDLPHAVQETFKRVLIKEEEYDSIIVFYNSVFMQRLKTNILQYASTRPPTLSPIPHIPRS

Rb^P R656Q = molecular target: T2, Rb^P R656Q (human, UniProt P06400 380-788, R656Q)
T2 sequence: T1 sequence with R95S, R277Q

Rb^P S534R = molecular target: T3, Rb^P S534R (human, UniProt P06400 380-788, S534R)
T3 sequence: T1 sequence with R95S, S155R

Rb^P K530I = molecular target: T4, Rb^P K530I (human, UniProt P06400 380-788, K530I)
T4 sequence: T1 sequence with R95S, K151I

Rb^P R763T = molecular target: T5, Rb^P R763T (human, UniProt P06400 380-788, R763T)
T5 sequence: T1 sequence with R95S, R384T

Measured: binding result

B1: TMR-E7^LxCxE (LxCxE peptide of the E7 oncoprotein from HPV, TMR-labeled) (peptide)
peptide: DLYCYEQLN
modifications: not fully specified; TMR fluorescent label (TMR-E7^LxCxE)
binds: all assays above
